Residue numbers refer to the chain shown, from its start. Names and notes keep the numbering of the source.

In general, IC50 refers to the concentration that inhibits the measured activity by half. As a reminder, the EC50 is the concentration giving half of the maximal effect. Usually Kd stands for the constant that tells how readily two partners part at equilibrium.

Sequences and labels used below:
B1: mAb1 (MOR11873 with IgG1 LALA Fc variant) (antibody, V domains shown)
VH: QVQLVESGGGVVQPGRSLRLSCAASGFTFTSYGMSWVRQAPGKGLEWVAGISYSGSDTEYADSVKGRFTISRDNSKNTLYLQMNSLRAEDTAVYYCARSPDYIIDYGFDYWGRGTLVTVSS
VL: AIQMTQSPSSLSASVGDRVTITCRASQGISSDLAWYQQKPGKAPKLLIYDASSLQSGVPSRFSGSGSGTDFTLTISSLQPEDFATYYCQQYWIYPFTFGQGTKVEIKR
notes: Human IgG1 L234A L235A (LALA), expressed in HKB11 cells
B2: mAb4 (MOR11878 with IgG1 LALA Fc variant) (antibody, V domains shown)
VH: B1 VH with S54D, G55A
VL: B1 VL with I93W
notes: as for B1
B3: mAb7 (MOR11879 with IgG1 LALA Fc variant) (antibody, V domains shown)
VH: QVQLVQSGAEVKKPGASVKVSCKASGYTFTGYYMHWVRQAPGQGLEWMGMIGPQHGEAIYAQKFQGRVTMTRDTSISTAYMELSRLRSEDTAVYYCARESTDSDESPFDYWGQGTLVTVSS
VL: DIELTQPPSVSVSPGQTASITCSGDNIRSYYVSWYQQKPGQAPVLVIYDDSDRPSGIPERFSGSNSGNTATLTISGTQAEDEADYYCQSYGSHSNFVVFGGGTKLTVLG
notes: as for B1
B4: mAb10 (MOR11880 with IgG1 LALA Fc variant) (antibody, V domains shown)
VH: B3 VH with E89D
VL: B3 VL with D1S, I2Y, P8L, S13A, P14L, S19R, G76R, T77A, E80G
notes: as for B1
B5: MOR11873 (antibody, V domains shown)
VH: B1 VH
VL: B1 VL
notes: Named by its variable regions only; H/DxMS used a representative antibody of the group; also called group mAb1, mAb2, mAb3, mAb13 (MOR11873)
B6: MOR11878 (antibody, V domains shown)
VH: B1 VH with S54D, G55A
VL: B1 VL with I93W
notes: Named by its variable regions only; H/DxMS used a representative antibody of the group; also called group mAb4, mAb5, mAb6, mAb14 (MOR11878)
B7: MOR11880 (antibody, V domains shown)
VH: B3 VH with E89D
VL: B3 VL with D1S, I2Y, P8L, S13A, P14L, S19R, G76R, T77A, E80G
notes: Named by its variable regions only; H/DxMS used a representative antibody of the group; also called group mAb10, mAb11, mAb12, mAb16 (MOR11880)

One assay deals with T1, human IL12Rbeta1 polypeptide (soluble receptor/antigen, construct not stated) (human, UniProt P42701 24-545).
T1 construct: the whole entry is named; also called IL12Rβ1; the receptor
Description: in vitro competitive binding assay (Bioveris/MSD); inhibition of receptor binding to coated IL23; IL23 competitive binding (second number of 8/18). The procedure:
(§1) During the assay procedure, a fixed amount (predetermined to result in near maximum signal) of the receptor was incubated with increasing concentrations (1:100 to 100:1 molar ratio) of purified Fab/IgG in solution. Subsequently, the samples were transferred to a ligand coated and blocked MSD multi-titer plate. The free receptor binds to the ligand and was detected via an appropriate ruthenium complex-labeled antibody and quantified. The concentration of bound receptor as an inverse function of Fab/IgG concentration used for incubation was fitted using the respective model. The inflection point of the fitted curve represents the IC₅₀ value.
For B1, the IC50 was found to be 18 pM.

The target of the next assay is T2, human IL12Rβ1 naturally expressed on cells (Kit225 cells, human T-cells, human blood cells) (human, UniProt P42701 24-662).
T2 construct: also called IL12 receptor beta 1
Description: flow cytometry, cell binding on human T-cells (human natural expression). The protocol:
(§2) Cell binding of selected antibodies is tested using various IL-12Rβ1 expressing cell lines, e.g. Kit 225 or HSC—F, or human and cyno T cell blasts, employing flow cytometry. After incubation with serial antibody dilutions, staining of the cells is quantified by flow cytometric analysis.
A general note: In flow cytometry, cells or beads pass a laser one at a time.
As for B1, the midpoint of the response, the EC50, lay at 33 pM.
In turn, B2 yielded an EC50 of 38 pM.
The same measure, in the same setting: for B3 the value was 15 pM; for B4, 16 pM.

A further assay addresses T3, cynomolgous IL12Rβ1 naturally expressed on cells (HSC-F cells, cyno T-cells, cyno blood cells) (cynomolgus monkey, UniProt P42701 24-662 (human entry)).
T3 construct: also called cyno IL12Rβ1
The assay is described as follows: flow cytometry, cell binding on cyno T-cells (cyno natural expression). The protocol:
as §2
As for B1, the EC50 came out at 55 pM.
For B2, the EC50 was determined as 41 pM.
For the molecule B3, the EC50 came to 36 pM.
The same measure, in the same setting: then B4, with 28 pM.

For another assay, the target named is T2, human IL12Rβ1 naturally expressed on …. The assay is described as follows: cell-based or functional assay.
In the case of B1, the “IL12/IL18 dependent IFNγ production In human blood cells (IC50, pM)” value turned out to be 28 pM.
Still for that read-out and setting: for B2 the value was 77 pM.
Still for that read-out and setting: then B3, with 24 pM.
Same read-out and setting: then B4, with 42 pM.

The next assay concerns the target T3, cynomolgous IL12Rβ1 naturally expressed …. The assay is described as follows: cell-based or functional assay.
B1: the “IL12/IL18 dependent IFNγ production In cyno blood cells (IC50, pM)” value amounted to 239 pM.
With B2, the “IL12/IL18 dependent IFNγ production In cyno blood cells (IC50, pM)” value was found to be 216 pM.
The same measure, in the same setting: then B3, with 284 pM; and B4, with 1180 pM.

The target of a further assay is T4, mouse IL12Rbeta1 (mouse, UniProt Q60837 20-565, limits assumed).
T4 construct: also called murine IL12Rbeta1; rodent IL12Rbeta1 proteins
T4 sequence (looked up): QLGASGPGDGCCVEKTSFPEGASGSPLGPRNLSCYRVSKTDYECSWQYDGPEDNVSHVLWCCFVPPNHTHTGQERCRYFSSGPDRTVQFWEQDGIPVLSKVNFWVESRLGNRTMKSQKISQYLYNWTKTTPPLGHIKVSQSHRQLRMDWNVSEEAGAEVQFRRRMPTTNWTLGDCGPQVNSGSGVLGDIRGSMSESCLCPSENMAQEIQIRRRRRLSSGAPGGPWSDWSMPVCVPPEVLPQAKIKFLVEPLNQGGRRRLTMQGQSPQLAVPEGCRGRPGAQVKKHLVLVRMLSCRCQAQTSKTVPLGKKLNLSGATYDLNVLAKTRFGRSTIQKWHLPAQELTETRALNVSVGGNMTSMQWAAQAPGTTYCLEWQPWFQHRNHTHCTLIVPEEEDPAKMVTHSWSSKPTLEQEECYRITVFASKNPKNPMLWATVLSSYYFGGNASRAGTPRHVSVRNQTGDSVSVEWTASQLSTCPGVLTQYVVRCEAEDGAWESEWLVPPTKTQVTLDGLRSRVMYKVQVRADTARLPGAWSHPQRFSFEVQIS
The assay is described as follows: not described.
With B5, the binding result is “no binding”.
B6: the binding result is given as “no binding”.
Turning to B7, the binding result is reported as “no binding”.

The next assay has as its target T3, cynomolgous IL12Rβ1 naturally expressed …. Description: flow cytometry, cell binding on HSC-F (cyno natural expression). The protocol:
as §2
B1 had a concentration for a half-maximal effect (EC50) of 23 pM.
Same read-out and setting: for B2 the value was 13 pM; for B3, 23 pM.

Another assay has as its target T1, human IL12Rbeta1 polypeptide (soluble …). The assay is described as follows: in vitro competitive binding assay (Bioveris/MSD); inhibition of receptor binding to coated IL12. The procedure:
as §1
B2 came in with an IC50 of 8 pM.
The same measure, in the same setting: then B3, with 8 pM; and B4, with 8 pM.

The target of another assay is T2, human IL12Rβ1 naturally expressed on …. The assay is described as follows: flow cytometry, cell binding on Kit225 (human natural expression). The procedure: as §2
For B1, the EC50 is 6 pM.
On the same count and under the same terms, for B2 the value was 5 pM; for B3, 10 pM; for B4, 11 pM.

A further assay concerns the target T5, human IL12Rβ1-Fc-Fusion (human, UniProt P42701 24-545).
T5 construct: Captured on an anti-human-Fc chip for SPR; not shown: Fc part of the fusion
The assay is described as follows: SPR (Biacore), IL12Rβ1-Fc fusion captured on anti-human-Fc CM5 chip. The source says:
For determination of KD values, surface plasmon resonance technology was applied using the Biacore™ technology. Anti-human-Fc-capture CM5 chip (Biacore, Sweden) was used for capturing IL12Rβ1-Fc-Fusion followed by ligand (Fab) injection at different concentrations.
For orientation: SPR reads the build-up and loss of mass on a sensor chip optically.
On to B1, for which the Kd was 40 pM.
The same measure, in the same setting: then B2, with 20 pM; and B3, with 40 pM.
On the same count and under the same terms, for B4 the value was 40 pM.

The next assay concerns the target T1, human IL12Rbeta1 polypeptide (soluble …). The assay is described as follows: in vitro competitive binding assay (Bioveris/MSD); inhibition of receptor binding to coated IL23. The protocol:
as §1
B2: the IC50 came out at 13 pM.
On the same count and under the same terms, for B3 the value was 20 pM; for B4, 20 pM.

The next assay shares this target. The assay is described as follows: in vitro competitive binding assay (Bioveris/MSD); inhibition of receptor binding to coated IL12; IL12 competitive binding (first number of 8/18). The protocol: as §1
As to B1, the IC50 amounted to 8 pM.

The next assay addresses T6, cynomolgous monkey IL12Rβ1 (recombinant, construct not stated) (cynomolgus monkey, UniProt P42701 24-545 (human entry), limits assumed).
T6 construct: The SPR method describes capture of an IL12Rβ1-Fc fusion, but the cyno construct is not described; the whole entry is named; also called cyno IL12Rβ1; cynomolgus IL12Rbeta1
The assay is described as follows: SPR (Biacore), cyno IL12Rβ1.
As for B1, the Kd was 100 pM.
On the same count and under the same terms, for B2 the value was 100 pM; for B3, 600 pM; for B4, 600 pM.

(Values after US20120082681A1 (Novartis, published 2012).)
